Experiment [1] deals with T1, AceK (isocitrate dehydrogenase kinase/phosphatase) (Escherichia coli, UniProt P11071).
T1 construct: hexahistidine-tagged, expressed in E. coli BL21 (DE3), Ni-NTA and Superdex200; 66 kDa
Kind of experiment: X-ray crystallography. To be noted: allosteric site at interface of kinase and regulatory domains; complex with ADP and Mn2+; AMP not listed among crystallisation additions. The experiment is classed as binding.

The target in experiment [2] is T2, phospho-IDH (isocitrate dehydrogenase phosphorylated by AceK) (E. coli) (UniProt P08200).
T2 sequence (chain, phosphorylated by AceK (residue not printed)): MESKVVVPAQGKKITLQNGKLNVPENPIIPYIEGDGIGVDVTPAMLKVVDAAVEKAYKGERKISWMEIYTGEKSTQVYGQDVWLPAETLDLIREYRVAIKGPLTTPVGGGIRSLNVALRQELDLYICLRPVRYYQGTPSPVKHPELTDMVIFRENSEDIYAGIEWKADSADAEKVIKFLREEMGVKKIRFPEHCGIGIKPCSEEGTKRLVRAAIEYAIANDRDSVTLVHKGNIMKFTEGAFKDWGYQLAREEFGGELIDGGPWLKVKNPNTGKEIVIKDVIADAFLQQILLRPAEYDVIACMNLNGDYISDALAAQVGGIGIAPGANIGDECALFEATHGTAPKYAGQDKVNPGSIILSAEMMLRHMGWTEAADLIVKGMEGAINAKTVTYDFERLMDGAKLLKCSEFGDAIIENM

Changes are numbered by the printed parent chain. In names and notes the source's numbering stands.

For `Nc1ncnc2c1ncn2[C@@H]1O[C@H](COP(=O)(O)O)[C@@H](O)[C@H]1O` [AMP], the X-ray crystallography result in experiment [1] is “a buried ADP molecule and a bound AMP at the interface of the two domains”.

B1: isocitrate dehydrogenase kinase/phosphatase (AceK) wild-type (enzyme)
chain: MPRGLELLIAQTILQGFDAQYGRFLEVTSGAQQRFEQADWHAVQQAMKNRIHLYDHHVGLVVEQLRCITNGQSTDAAFLLRVKEHYTRLLPDYPRFEIAESFFNSVYCRLFDHRSLTPERLFIFSSQPERRFRTIPRPLAKDFHPDHGWESLLMRVISDLPLRLRWQNKSRDIHYIIRHLTETLGTDNLAESHLQVANELFYRNKAAWLVGKLITPSGTLPFLLPIHQTDDGELFIDTCLTTTAEASIVFGFARSYFMVYAPLPAALVEWLREILPGKTTAELYMAIGCQKHAKTESYREYLVYLQGCNEQFIEAPGIRGMVMLVFTLPGFDRVFKVIKDRFAPQKEMSAAHVRACYQLVKEHDRVGRMADTQEFENFVLEKRHISPALMELLLQEAAEKITDLGEQIVIRHLYIERRMVPLNIWLEQVEGQQLRDAIEEYGNAIRQLAAANIFPGDMLFKNFGVTRHGRVVFYDYDEICYMTEVNFRDIPPPRYPEDELASEPWYSVSPGDVFPEEFRHWLCADPRIGPLFEEMHADLFRADYWRALQNRIREGHVEDVYAYRRRQRFSVRYGEMLF
Take B1: the Km for phospho-IDH, phosphatase kinetics (20 mM Hepes pH 7.0, 2.0 mM Mn2+, 2.0 mM ADP, 37 °C) in experiment [2] was found to be 0.376 μM.

B2: AceK D477A (enzyme)
chain: B1 chain with D477A
B2: the Km for phospho-IDH, phosphatase kinetics (20 mM Hepes pH 7.0, 2.0 mM Mn2+, 2.0 mM ADP, 37 °C) in experiment [2] came out at 16.1 μM.

B3: AceK D475A (enzyme)
chain: B1 chain with D475A
On to B3, for which the Km for phospho-IDH, phosphatase kinetics (20 mM Hepes pH 7.0, 2.0 mM Mn2+, 2.0 mM ADP, 37 °C) in experiment [2] stood at 1.95 μM.

B4: AceK D477K (enzyme)
chain: B1 chain with D477K
On to B4, for which the Km for phospho-IDH, phosphatase kinetics (20 mM Hepes pH 7.0, 2.0 mM Mn2+, 2.0 mM ADP, 37 °C) in experiment [2] is 12.2 μM.

Values taken from article PMC6591243, “Characterization of metal binding of bifunctional kinase/phosphatase AceK and implication in activity modulation” (Scientific Reports, 2019).
